Target: complete MN/CA IX protein (MN/CA IX+), from Vero cells infected with vaccinia virus carrying the complete coding region of MN/CA IX (human) (UniProt Q16790)
Assay: cell-based or functional assay

monoclonal antibody M75 (MAb M75), secreted by hybridoma VU-M75, ATCC HB 11128
cell attachment to purified MN/CA IX+ (fold dilution of ascites fluid): 1000
